Positions count from the first letter of the chain named.
Assays:
[1] = molecular target: T1, DVU1419 response regulator (Desulfovibrio vulgaris Hildenborough) (UniProt Q72C65); assay: EMSA; settings: EMSA: 10 mM Tris-HCl pH 7.5, 1 mM DTT, 50 mM KCl, 5 mM MgCl2, 25% glycerol, 1 ug/ml poly dI-dC, 50-100 fmol biotin-DNA, 25-30 C, 20 min
T1 sequence: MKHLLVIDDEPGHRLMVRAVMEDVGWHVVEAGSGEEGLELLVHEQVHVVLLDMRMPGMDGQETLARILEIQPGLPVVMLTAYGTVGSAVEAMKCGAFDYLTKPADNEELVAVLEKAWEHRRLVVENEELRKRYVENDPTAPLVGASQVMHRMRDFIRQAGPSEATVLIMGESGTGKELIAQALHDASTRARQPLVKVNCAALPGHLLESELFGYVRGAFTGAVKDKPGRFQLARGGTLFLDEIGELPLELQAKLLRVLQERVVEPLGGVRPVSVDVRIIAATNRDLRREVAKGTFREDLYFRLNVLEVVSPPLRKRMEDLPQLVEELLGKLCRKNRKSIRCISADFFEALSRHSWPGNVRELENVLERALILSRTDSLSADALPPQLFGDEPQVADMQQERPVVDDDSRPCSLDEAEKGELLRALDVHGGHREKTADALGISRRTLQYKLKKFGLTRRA

[2] = molecular target: T2, DVU0118 response regulator (Desulfovibrio vulgaris Hildenborough, UniProt Q72FU5 1-454); assay: EMSA; EMSA: 10 mM Tris-HCl pH 7.5, 1 mM DTT, 50 mM KCl, 5 mM MgCl2, 25% glycerol, 1 ug/ml poly dI-dC, 50-100 fmol biotin-DNA, 25-30 C, 20 min; settings: protein: recombinant; tags: C-terminal V5-6xHis; chain copies: 2; label: 5'-biotin top strand; blunt
T2 sequence: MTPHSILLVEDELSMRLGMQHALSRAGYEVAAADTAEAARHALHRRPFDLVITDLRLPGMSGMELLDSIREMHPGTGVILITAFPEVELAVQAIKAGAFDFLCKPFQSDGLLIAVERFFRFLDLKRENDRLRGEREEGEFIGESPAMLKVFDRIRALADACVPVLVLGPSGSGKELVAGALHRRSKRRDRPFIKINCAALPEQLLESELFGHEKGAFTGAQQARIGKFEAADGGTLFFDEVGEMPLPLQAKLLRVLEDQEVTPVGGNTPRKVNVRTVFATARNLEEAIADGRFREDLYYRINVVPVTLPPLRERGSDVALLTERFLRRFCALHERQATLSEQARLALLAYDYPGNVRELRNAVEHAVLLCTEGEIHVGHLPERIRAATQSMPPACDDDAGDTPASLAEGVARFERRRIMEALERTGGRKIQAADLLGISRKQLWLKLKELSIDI

[3] = molecular target: T3, DVU1063 response regulator (Desulfovibrio vulgaris Hildenborough, UniProt Q72D66 1-479); assay: as above; settings: protein: recombinant; tags: C-terminal V5-6xHis; chain copies: 2; label: 5'-biotin top strand; blunt
T3 sequence: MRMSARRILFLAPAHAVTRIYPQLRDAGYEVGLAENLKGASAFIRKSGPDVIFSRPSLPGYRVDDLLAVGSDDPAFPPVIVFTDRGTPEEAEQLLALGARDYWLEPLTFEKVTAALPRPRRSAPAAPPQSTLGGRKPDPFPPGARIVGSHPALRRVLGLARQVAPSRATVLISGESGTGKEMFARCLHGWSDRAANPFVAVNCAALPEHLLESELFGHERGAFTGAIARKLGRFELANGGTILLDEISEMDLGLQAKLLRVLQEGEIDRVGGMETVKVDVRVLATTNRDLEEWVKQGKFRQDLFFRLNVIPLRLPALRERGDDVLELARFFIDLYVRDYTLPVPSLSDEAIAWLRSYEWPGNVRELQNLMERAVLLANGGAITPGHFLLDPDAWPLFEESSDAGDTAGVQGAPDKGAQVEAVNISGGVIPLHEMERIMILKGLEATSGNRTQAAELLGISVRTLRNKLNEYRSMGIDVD

[4] = molecular target: T4, DVU1419 response regulator (Desulfovibrio vulgaris Hildenborough, UniProt Q72C65 1-459); assay: as above; settings: protein: recombinant; tags: C-terminal V5-6xHis; chain copies: 2; label: 5'-biotin top strand; blunt
T4 sequence: T1 sequence

[5] = molecular target: T5, DVU0679 response regulator (Desulfovibrio vulgaris Hildenborough, UniProt Q72E99 1-488); assay: as above; settings: protein: recombinant; tags: C-terminal V5-6xHis; chain copies: 2; label: 5'-biotin top strand; blunt
T5 sequence: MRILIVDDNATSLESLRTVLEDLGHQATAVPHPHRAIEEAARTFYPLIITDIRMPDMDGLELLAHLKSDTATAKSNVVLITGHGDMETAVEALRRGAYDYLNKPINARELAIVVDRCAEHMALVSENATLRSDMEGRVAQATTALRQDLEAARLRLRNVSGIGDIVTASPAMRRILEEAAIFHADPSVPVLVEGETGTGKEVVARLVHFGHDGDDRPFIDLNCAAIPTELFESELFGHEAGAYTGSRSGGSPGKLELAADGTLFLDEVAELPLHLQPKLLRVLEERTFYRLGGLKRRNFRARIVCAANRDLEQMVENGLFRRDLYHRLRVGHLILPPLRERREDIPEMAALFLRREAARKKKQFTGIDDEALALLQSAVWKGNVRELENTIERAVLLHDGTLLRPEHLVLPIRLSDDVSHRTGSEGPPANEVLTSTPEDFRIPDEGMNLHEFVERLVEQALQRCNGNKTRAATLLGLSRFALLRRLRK

[6] = molecular target: T6, DVU0539 response regulator (Desulfovibrio vulgaris Hildenborough, UniProt Q72EN8 1-467); assay: as above; settings: protein: recombinant; tags: C-terminal V5-6xHis; chain copies: 2; label: 5'-biotin top strand; blunt
T6 sequence: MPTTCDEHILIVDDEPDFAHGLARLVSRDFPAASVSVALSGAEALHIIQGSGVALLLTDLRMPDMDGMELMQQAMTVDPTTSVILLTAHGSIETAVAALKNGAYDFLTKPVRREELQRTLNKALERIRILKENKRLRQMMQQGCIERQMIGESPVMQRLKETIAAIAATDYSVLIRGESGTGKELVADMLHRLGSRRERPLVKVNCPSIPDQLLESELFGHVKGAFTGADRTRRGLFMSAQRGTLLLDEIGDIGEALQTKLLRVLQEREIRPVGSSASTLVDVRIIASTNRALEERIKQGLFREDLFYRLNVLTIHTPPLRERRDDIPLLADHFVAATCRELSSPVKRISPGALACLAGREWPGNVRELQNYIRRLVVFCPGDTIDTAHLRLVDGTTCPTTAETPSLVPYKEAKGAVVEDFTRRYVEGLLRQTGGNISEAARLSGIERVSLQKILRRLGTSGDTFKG

[7] = molecular target: T7, DVU0946 response regulator (Desulfovibrio vulgaris Hildenborough, UniProt Q72DI3 1-476); assay: as above; settings: protein: recombinant; tags: C-terminal V5-6xHis; chain copies: 2; label: 5'-biotin top strand; blunt
T7 sequence: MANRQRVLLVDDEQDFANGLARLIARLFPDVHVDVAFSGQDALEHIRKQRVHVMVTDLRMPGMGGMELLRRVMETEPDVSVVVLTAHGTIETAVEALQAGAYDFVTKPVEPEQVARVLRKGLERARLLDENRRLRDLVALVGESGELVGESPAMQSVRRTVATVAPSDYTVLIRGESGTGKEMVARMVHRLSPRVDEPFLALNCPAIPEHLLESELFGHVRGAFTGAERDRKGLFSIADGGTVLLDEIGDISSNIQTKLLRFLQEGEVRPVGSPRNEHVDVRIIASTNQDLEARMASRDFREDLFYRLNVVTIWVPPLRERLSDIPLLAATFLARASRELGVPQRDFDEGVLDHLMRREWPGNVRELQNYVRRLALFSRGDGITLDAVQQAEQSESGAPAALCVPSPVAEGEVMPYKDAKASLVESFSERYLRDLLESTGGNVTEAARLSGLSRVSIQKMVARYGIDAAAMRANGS

[8] = molecular target: T2, DVU0118 response regulator; assay: EMSA; 10 mM Tris-HCl pH 7.5, 1 mM DTT, 50 mM KCl, 5 mM MgCl2, 25% glycerol, 1 ug/ml poly dI-dC, 50-100 fmol biotinylated DNA, 25-30 C, 20 min; settings: protein: recombinant; tags: C-terminal V5-6xHis; chain copies: 2; label: 5'-biotin top strand
[9] = molecular target: T8, DVU2394 response regulator (Desulfovibrio vulgaris Hildenborough, UniProt Q729F7 1-463); assay: as above; settings: protein: recombinant; tags: C-terminal V5-6xHis; chain copies: 2; label: 5'-biotin top strand
T8 sequence: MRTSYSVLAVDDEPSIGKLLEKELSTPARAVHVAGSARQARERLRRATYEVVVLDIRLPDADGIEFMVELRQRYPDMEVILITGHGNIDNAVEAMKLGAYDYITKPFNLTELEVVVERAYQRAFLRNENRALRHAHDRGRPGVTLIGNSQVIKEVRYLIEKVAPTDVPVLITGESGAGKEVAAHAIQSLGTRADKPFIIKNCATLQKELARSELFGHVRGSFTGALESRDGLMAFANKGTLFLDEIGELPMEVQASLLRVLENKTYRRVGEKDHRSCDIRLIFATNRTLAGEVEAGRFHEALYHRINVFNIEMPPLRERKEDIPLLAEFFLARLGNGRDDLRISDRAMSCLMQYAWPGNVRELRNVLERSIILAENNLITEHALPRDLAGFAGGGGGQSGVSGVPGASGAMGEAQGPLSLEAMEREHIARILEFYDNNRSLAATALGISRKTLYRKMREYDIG

## GTCGGCGATTTCCATGAAGACTCCGGTGGTGTCTGGCGGGACATGAAAGAACTGTGCCGAAGGGTGACACCCCGGCAGATGCTGATGCCGGGTGCGCCACCACAGGCCAGCCCTTGCACCATGTCGCATCGCAAGGTCTCTGCGTTGCCTCGCAACGCGGTGCCGTGCACCATGAATGTGCAAACGATGGCACACAACGCCACGGCGTGCAATAAGATGCACACCACCTGCACATATCAAGCCTCATGTGAAGGAAAAGGACGGC (double strand) [DVU1418 upstream]
[1]
  binding: binds

B1: DVU0123 motif wt (dsDNA)
DNA 1: CGAACAGGAACATGTTCCCTCAAAGGAACATCGTTGGTGGAA
DNA 2: TTCCACCAACGATGTTCCTTTGAGGGAACATGTTCCTGTTCG
[2]
  binding result: binds

B2: DVU1032 motif wt (dsDNA)
DNA 1: GGCATGGTCGGGCGGCAGTTTTTTCCTGTATCCTG
DNA 2: CAGGATACAGGAAAAAACTGCCGCCCGACCATGCC
[3]
  binding result: binds

B3: DVU1418 motif wt (dsDNA)
DNA 1: GCCGTGGCGTTGTGTGCCATCGTTTGCACATTCATGGTGC
DNA 2: GCACCATGAATGTGCAAACGATGGCACACAACGCCACGGC
[4]
  binding result: binds

B4: DVU1418 motif mut (dsDNA)
DNA 1: B3 DNA 1 with G14A, A28T, A30G
DNA 2: B3 DNA 2 with T11C, T13A, C27T
[4]
  binding result: no binding

B5: DVU0677 motif wt (dsDNA)
DNA 1: AATCGCACGCCGTGCGTATTCGCACGTGCTTTTCCG
DNA 2: CGGAAAAGCACGTGCGAATACGCACGGCGTGCGATT
[5]
  binding result: binds

B6: DVU0943 motif wt (dsDNA)
DNA 1: AGGTTTACGATGCAAAGTGATGTTTGCAGCTTGCCGAG
DNA 2: CTCGGCAAGCTGCAAACATCACTTTGCATCGTAAACCT
[6]
  binding result: binds
[7]
  binding result: binds

B7: DVU0123 motif mut (dsDNA)
DNA 1: B1 DNA 1 with A12T, G14C, C17G, A27T, A30G
DNA 2: B1 DNA 2 with T13C, T16A, G26C, C29G, T31A
[8]
  binding result: no binding

B8: DVU2405 motif mut (dsDNA)
DNA 1: TCCAGCCATCTATGTTTTTTCGTGACTATGTTGAAGTTCGACCCAA
DNA 2: TTGGGTCGAACTTCAACATAGTCACGAAAAAACATAGATGGCTGGA
[9]
  binding result: no binding

From publication PMC3333781, “Systematic mapping of two component response regulators to gene targets in a model sulfate reducing bacterium”
